US20260008818A1, “CYCLIC PEPTIDE OR SALT THEREOF, AND USES THEREOF” (FUJIFILM Corporation, priority 2023, published 2026)
Bridge positions count the residues as written; N and C are the ends. Square brackets hold non-standard residues; d marks the D form. Ends that are not written are not given here. NMeL = CN[C@@H](CC(C)C)C(=O)O; hCys = N[C@@H](CCS)C(=O)O; Orn = NCCC[C@H](N)C(=O)O

Columns and labels:
[1] = Molecular stability of cyclic peptide after reducing agent (DTT) treatment, LC; assay type: physicochemical; conditions: residual rate after 12.6 mmol/L DTT aqueous solution, room temperature, 1 hour
Method: The molecular stability of the cyclic peptide was evaluated by analyzing an aqueous solution of the cyclic peptide treated with a reducing agent by liquid chromatography (LC).
The reducing agent treatment was performed under the following conditions based on the concentration of glutathione contained in the cells. 25 μL of a 0.2 mg/mL cyclic peptide aqueous solution was prepared, 58.8 μL of a 12.6 mmol/L DTT aqueous solution was added to the aqueous solution, and the mixture was incubated at room temperature for 1 hour to obtain an aqueous solution of the cyclic peptide treated with a reducing agent. The DTT aqueous solution was used by diluting a 1 mol/L (+-)-dithiothreitol (DTT) solution (FUJIFILM Wako Pure Chemical Corporation, 044-33871) with water. The total area of all the peaks in LC/MS of the cyclic peptide before the reducing agent treatment was set to 100%, and the proportion of the total area of all the peaks in LC/MS of the aqueous solution of the cyclic peptide treated with the reducing agent was determined to calculate the residual rate of the cyclic peptide, and the molecular stability was evaluated according to the following evaluation criteria. The evaluation result preferably satisfies the evaluation criteria A, B, or C.
• A: The residual rate of cyclic peptide is 90% or more. • B: The residual rate of the cyclic peptide is 70% or more and less than 90% • C: The residual rate of the cyclic peptide is 50% or more and less than 70% • D: The residual rate of the cyclic peptide is less than 50%
The LC used for the evaluation of molecular stability was set to the following conditions. • LC device: Prominence series (pump, column oven, autosampler, detector) (manufactured by Shimadzu Corporation) • Detector: photodiode array detector (SPD-M20A), measurement wavelength of 280 nm • Column: TSKgel ODS-100V, inner diameter of 4.6 mm×length of 150 mm, particle diameter of 5 μm (manufactured by Tosoh Corporation) • Eluent A: solution containing 0.1% trifluoroacetic acid as solute, and solvent is 100% water • Eluent B: solution containing 0.1% trifluoroacetic acid as solute, and solvent is 100% acetonitrile • Flow rate: 1.0 mL/min • Injection amount: 25 μL • Gradient: 20% to 50%: Eluent B (0 to 15 minutes), 100%: Eluent B (15 minutes) • Column temperature: 40° C.

[2] = test system: Recombinant Human FGFR 1 alpha (IIIc) Fc Chimera Protein; test: Binding affinity of chemically synthesized cyclic peptide to immobilized FGFR by SPR; conditions: 10 nmol/L cyclic peptide, 25° C., binding amount per one molecule of FGFR, chemically synthesized product
Method: The binding affinity of the cyclic peptide to FGFR was evaluated using a surface plasmon resonance (SPR) method.
A CM5 sensor chip (Cytiva, 29149603) was set in Biacore-T200 (manufactured by Cytiva) which is a surface plasmon resonance device, and an HBS-EP buffer (Cytiva, BR100826) was added as a running buffer at a flow rate of 10 μL/min to equilibrate the flow channel. Next, 70 μL of a mixed aqueous solution of 0.2 mol/L 1-(3-dimethylaminopropyl)-3-ethylcarbodiimide (EDC) and 0.05 mol/L N-hydroxysuccinimide (NHS) was added to activate the sensor chip. Then, Recombinant Human FGFR 1 alpha (IIIc) Fc Chimera Protein CF (R&D systems, 658-FR-050) prepared at 50 nmol/L in an Acetate 4.5 buffer (Cytiva, BR100350) was added thereto to perform immobilization at about 5000 RU. Thereafter, the blocking treatment was performed with an ethanolamine solution. In addition, in another flow channel of the same sensor chip, blocking treatment was performed immediately after activation without immobilizing FGFR.
A cyclic peptide diluted to 10 nmol/L using HBS-EP was added to each flow channel of the FGFR-immobilized sensor chip produced above at 25° C. for 10 minutes, then HBS-EP was allowed to flow as a running buffer for 30 minutes, and the binding of the cyclic peptide to FGFR was measured. Thereafter, a regeneration treatment of removing the bound cyclic peptide was performed by repeating the flow of a regeneration liquid in which sodium chloride powder was dissolved in Glysine 1.5 (Cytiva, BR100354) to a final concentration of 0.15 mol/L for 1 minute in each flow channel twice. The binding amount of the cyclic peptide was evaluated from the difference between the measured value of Biacore-T200 in the flow channel in which FGFR was immobilized and the measured value of Biacore-T200 in the flow channel in which FGFR was not immobilated, in a case where a 10 nmol/L cyclic peptide was allowed to flow.
The binding amount of the cyclic peptide evaluated above was normalized to the binding amount of the cyclic peptide molecules per one molecule of FGFR using the molecular weights of the cyclic peptide and FGFR, and the binding affinity to FGFR was evaluated according to the following evaluation criteria. The evaluation result preferably satisfies the evaluation criteria A, B, or C.
• A: The binding amount is 0.7 molecules of the cyclic peptide/one molecule of FGFR or more. • B: The binding amount is 0.5 molecules of the cyclic peptide/one molecule of FGFR or more and less than 0.7 molecules of cyclic peptide/one molecule of FGFR. • C: The binding amount is 0.1 molecules of cyclic peptide/one molecule of FGFR or more and less than 0.5 molecules of cyclic peptide/one molecule of FGFR. • D: The binding amount is less than 0.1 molecules of the cyclic peptide/one molecule of FGFR.

Substance	Evaluation result of reductive stability [1]	Evaluation result of binding affinity to FGFR [2]
374 (HXSYERLQFHGHEAPFRVKVKKK; not fully specified; Description of Artificial Sequence: Cyclic peptide) [compound 374]	A (The residual rate of cyclic peptide is 90% or more.)	A (The binding amount is 0.7 molecules of the cyclic peptide/one molecule of FGFR or more.)
375 (HXSYERLQFHGHEAPFRVXVKKK; not fully specified; Description of Artificial Sequence: Cyclic peptide) [compound 375]	A (The residual rate of cyclic peptide is 90% or more.)	A (The binding amount is 0.7 molecules of the cyclic peptide/one molecule of FGFR or more.)
376 (HXSYERLQFHGHEAPFRVXVKKK; not fully specified; Description of Artificial Sequence: Cyclic peptide) [compound 376]	A (The residual rate of cyclic peptide is 90% or more.)	A (The binding amount is 0.7 molecules of the cyclic peptide/one molecule of FGFR or more.)
377 (HXSYERLQFHGHEAPFRVXVKKK; not fully specified; Description of Artificial Sequence: Cyclic peptide) [compound 377]	A (The residual rate of cyclic peptide is 90% or more.)	A (The binding amount is 0.7 molecules of the cyclic peptide/one molecule of FGFR or more.)
378 (HKSYERLQFHGHEAPFRVXVKKK; not fully specified; Description of Artificial Sequence: Cyclic peptide) [compound 378]	A (The residual rate of cyclic peptide is 90% or more.)	A (The binding amount is 0.7 molecules of the cyclic peptide/one molecule of FGFR or more.)
379 (HXSYERLQFHGHEAPFRVXVKKK; not fully specified; Description of Artificial Sequence: Cyclic peptide) [compound 379]	A (The residual rate of cyclic peptide is 90% or more.)	A (The binding amount is 0.7 molecules of the cyclic peptide/one molecule of FGFR or more.)
380 (HXSYERLQFHGHEAPFRVXVKKK; not fully specified; Description of Artificial Sequence: Cyclic peptide) [compound 380]	A (The residual rate of cyclic peptide is 90% or more.)	A (The binding amount is 0.7 molecules of the cyclic peptide/one molecule of FGFR or more.)
381 (HXSYERLQFHGHEAPFRVXVKKK; not fully specified; Description of Artificial Sequence: Cyclic peptide) [compound 381]	A (The residual rate of cyclic peptide is 90% or more.)	A (The binding amount is 0.7 molecules of the cyclic peptide/one molecule of FGFR or more.)
384 (H[Orn]SYERLIFHGHEAPFWV[hCys]VKKK; bridge 2-19; not fully specified (residue 2, bridges); printed as H-(Orn(acetyl))-SYERLIFHGHEAPFWV-(Hcy)-VKKK) [compound 384]	B (The residual rate of the cyclic peptide is 70% or more and less than 90%)	A (The binding amount is 0.7 molecules of the cyclic peptide/one molecule of FGFR or more.)
385 ([Orn]SYERLIFHGHEAPFWV[hCys]KKK; bridge 1-18; not fully specified (residue 1, bridges); printed as (Orn(acetyl))-SYERLIFHGHEAPFWV-(Hcy)-KKK) [compound 385]	A (The residual rate of cyclic peptide is 90% or more.)	C (The binding amount is 0.1 molecules of cyclic peptide/one molecule of FGFR or more and less than 0.5 molecules of cyclic peptide/one molecule of FGFR.)
386 ({CH2CO}-HASYERLIFHGHEAPFWVCVKKK; thioether N-19 (inferred)) [compound 386]	A (The residual rate of cyclic peptide is 90% or more.)	B (The binding amount is 0.5 molecules of the cyclic peptide/one molecule of FGFR or more and less than 0.7 molecules of cyclic peptide/one molecule of FGFR.)
387 (H[Orn]SYER[NMeL]IFHGHEAPFWV[hCys]VKKK; bridge 2-19; not fully specified (residue 2, bridges)) [compound 387]	A (The residual rate of cyclic peptide is 90% or more.)	A (The binding amount is 0.7 molecules of the cyclic peptide/one molecule of FGFR or more.)
389 (H[Orn]SYERLIFHGHEAPFWV[hCys]KKK; bridge 2-19; not fully specified (residue 2, bridges); printed as H-(Orn(acetyl))-SYERLIFHGHEAPFWV-(Hcy)-KKK) [compound 389]	A (The residual rate of cyclic peptide is 90% or more.)	A (The binding amount is 0.7 molecules of the cyclic peptide/one molecule of FGFR or more.)
390 ([Orn]SYERLIFHGHEAPFWV[hCys]VKKK; bridge 1-18; not fully specified (residue 1, bridges); printed as (Orn(acetyl))-SYERLIFHGHEAPFWV-(Hcy)-VKKK) [compound 390]	A (The residual rate of cyclic peptide is 90% or more.)	C (The binding amount is 0.1 molecules of cyclic peptide/one molecule of FGFR or more and less than 0.5 molecules of cyclic peptide/one molecule of FGFR.)
